Test results from patent US20060286112A1 (published 2006).

B1: 6.48 (antibody, V domains shown)
VH: EVQLVQSGAEVKKPGESLRISCKGSGYSVSSYWIGWVRQMPGKGLEWMGIIYPGDSDTRYSPSFQGQVTISADKSISTAFLQWISLKASDTAMYYCARLQGDCSGGSCYGHFDCWGQGTLVTVS
VL: DVVLTQSPLSLPVTLGQPASISCRSSQSLVNSDGDTYLSWFQQWPGQSPRRLFYEVSNWDSGVPDRFSGSGSGTDFTLKISRVEAEDVGVYYCMQGTHWLTFGGGTKVEIK
notes: human IgG2 or IgG4
B2: 7.34 (antibody, V domains shown)
VH: EVQLVESGGGLVKPGGSLRLSCAASGFTFSNAWMSWVRQAPGKGLEWVGRIKSKTEGGTTDNVAPVKGRFTISRDDSKNTLYLQMNSLKTEDTAVYYCTITTHYYGMDVWGQGTTVTVSS
VL: DIQMTQSPSSLSASVGDRVTITCRASQTINNYLNWYQQKPGKAPKLLIYAASSLQSGVPSRFSGSGSGTDFTLTISSLQPEDFATYSCQQSNSPPFTFGPGTKVDVK
B3: 7.7 (antibody, V domains shown)
VH: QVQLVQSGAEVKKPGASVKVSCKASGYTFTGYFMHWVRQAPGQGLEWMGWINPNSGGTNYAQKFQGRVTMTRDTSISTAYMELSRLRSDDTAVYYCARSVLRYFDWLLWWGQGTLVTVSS
VL: DIVMTQSPESLAVSLGERTTINCKSSQSVLFSSNNENHLAWYQQKPGQPPKLLIYWASTRESGVPDRFSGSGSGTDFTLTISSLQAEDVAVYYCQQYYITPCSFGQGTKLEIK
notes: human IgG2 or IgG4
B4: 7.22 (antibody, V domains shown)
VH: QVQLQESGPGLGKPSQTLSLTCTVSGGSISSGGHYWSWIRQHPGKGLEWIGYIYYSGSTYYNPSLKSRVTISVDTSKNQFSLKLSSVTAADTAVYYCARDDVRYGGMDVWGQGTTVTVSS
VL: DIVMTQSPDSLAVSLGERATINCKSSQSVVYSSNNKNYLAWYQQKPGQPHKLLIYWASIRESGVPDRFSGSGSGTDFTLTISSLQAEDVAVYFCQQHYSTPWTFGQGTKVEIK
B5: 2.11 (antibody, V domains shown)
VH: QVQLQESGPGLVKPSQTLSLTCTVSGGSINSGGYYWSWIRQHPGKGLEWIGYIFYSGSTYYNPSLKSRVNISVDTSKNQFSLKMSSVTAADTAVYYCARDQDGFDYWGQGTLVTVSS
VL: DIVMTQTPLSLPVTPGEPASISCRSSQSLLDSDDGNTYLDWYLQKPGQSPQLLIYTLSYRASGVPDRFSGSGSGTDFTLKISRVEAEDVGVYYCMQRIEFPWTFGQGTKVEIK
notes: human IgG2 or IgG4
B6: 4.13 (antibody, V domains shown)
VH: QVQLVQSGAEVKKPGASVKVSCKASGYTFTSYYMNWVRQAPGQGLEWMGIISPSGGSTTYAQKFQGRVTMTRDTSTSTVYMELSSLRSEDTAVYYCARTGYSGYEGYYYGLDVWGQGTTVTVSS
VL: DVVMTQSPLSQPVTLGQPASISCRSSQSLVYSDGNTYLHWFQQRPGQSPRRLIYKVSNWDSGVPDRFSGSGSGTDFTLKISRVEAEDVGVYDCMQGTHWPSTFGGGTKVEIK
B7: 7.73 (antibody, V domains shown)
VH: QVQLQESGPGLVKPSETLSLTCTVSGGSISSHYWSWIRQPAGKGLEWIGRVYSSGSTNSNPSLKSRVTMSVDTAKNQFSLKLSSVTAADTAVYYCAREGYDFWSDYYNYYYGMDVWGQGTTVTVS
VL: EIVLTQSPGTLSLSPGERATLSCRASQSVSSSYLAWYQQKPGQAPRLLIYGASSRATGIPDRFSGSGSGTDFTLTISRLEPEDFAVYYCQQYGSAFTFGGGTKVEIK
B8: 7.3 (antibody, V domains shown)
VH: QVQLVESGGGVVQPGRSLRLSCAASGITFSSYGMHWVRQAPGKGLEWVAVMWYEGSNKYYADSVKGRFTISRDNSKNTLYLQMNSLRAEDTAVYYCARGVLRYFDWLSYWGQGTLVTVSS
VL: EIVMTQSPATLSVSPGERATLSCRASQSVSSHLAWYQQKPGQAPRLLIYGASTRATGIPARFSGSGSGTEFTLTISSLQSEDFAVYYCQQYNNWPLTFGGGTKVEIK
B9: 2.10 (antibody, V domains shown)
VH: EVQLVESGGGLVKPGGSLRLSCAASGFTLSSYSMNWVRQAPGKGLEWVSSISSSSSYIHYADSVKGRFTISRDNAKNSLYLQMNSLRAEDTAVYYCARAPVVFDYWGQGTLVTVSS
VL: EIVLTQSPGTLSLSPGERATLSCRASQSVSSSYLAWYQQKPGQAPRLLISGASSRATGIPDRFSGSGSGTDFTLTISRLEPEDFAVYYCQQYGGSLTWTFGQGTKVEIK
B10: 2.1 (antibody, V domains shown)
VH: QVQLQESGPGLVKPSQTLSLTCTVSGGSISSGGYYWSWIRQHPGKGLEWIGYIYNSGSTYYNPSLKSRGTISADTSKNQFSLKLSSVTAADTAVYYCARGSSSYYWYFDLWGRGTLVTVSS
VL: DIQMTQSPSSMSASVGDRVTITCRASQRISSNLNWYQQKPGKAPKFLIYGASSLQSGVPSRFSGSGSGTDFTLTISSLRPEDFATYYCQQSYSTPYTFGPGTKVDIK
B11: 6.3 (antibody, V domains shown)
VH: QVLLQESGPGLVKPSQTLSLTCTVSGGSISSGGYYWSWIRQHPGKGLEWIGYINYSGSAYYNPSLKSRVTISVDTSKNQFSLKLSSVTAADTAVYYCARDHWLLRGFDYWGQGTLVTVSS
VL: DIVMTQTPLSLSVTPGQPASISCKSSQSLLHSDGKTYLYWYLQKPGQPPQLLIYEVSNRFSGVPDRFSGSGSGTDFTLKISRVEAEDVGVYYCMQSIQLPRTFGQGTKVEIK
B12: 2.25 (antibody, V domains shown)
VH: QVQLQQSGPGLVKPSQTLSLTCAISGDSVSSNSAAWNWIRQSPSRGLEWLGRTYYMSKWYNDYAVSVKSRITINPDTSKNQFSLQLNSVTPEDTAVYYCARARYCGGDCYDFDYWGQGTLVTVSS
VL: DIQMTHSPSSLSASVGDRVTITCRASQSISISLNWYQQKPGNAPKLLIYAASSLQSGIPSRFSGSGSGTDFTLTISSLQPEDFATYYCQQSFSTPWTFGQGTKVEIK
B13: 7.57 (antibody, V domains shown)
VH: QVQLVQSGAEVKKPGASVRVSCKASGYTFTGYFMHWVRQAPGQGLEWMGWINPNSGGTNYAQKFQGRVTMTRDTSISTASMELSRLRSDDTAVYYCARAPLRYFDWLDYWGQGTLVTVSS
VL: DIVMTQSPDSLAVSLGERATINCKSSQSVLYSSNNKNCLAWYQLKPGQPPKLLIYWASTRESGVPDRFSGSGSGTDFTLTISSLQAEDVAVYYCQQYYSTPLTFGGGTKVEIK
B14: 7.40 (antibody, V domains shown)
VH: QVQLQESGPGLVKPSETLSLTCTVSGGSISSHYWSWIRQPAGKGLEWIGRIYTSGSTNYNPSLKSRVTMSVDTSKNQFSLKLRSVTAADTAVYYCAREGYSSSSGHYDYYYGMDVWGQGTTVTVS
VL: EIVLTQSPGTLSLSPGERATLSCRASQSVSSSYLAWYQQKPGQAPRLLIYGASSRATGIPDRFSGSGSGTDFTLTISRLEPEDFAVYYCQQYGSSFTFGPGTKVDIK

target: T1, human VLA-1 (alpha 1/beta 1, CD49a/CD29) on IL-2 stimulated human PBMC / T cells (human, UniProt P56199 29-1179; P05556 21-798); experiment: cell-based or functional assay

% adhesion of T cells to collagen IV vs no antibody, 0.5 nM mAb, no PMA [%]	% adhesion of T cells to collagen IV vs no antibody, 5 nM mAb, no PMA [%]	Binder
70	16.7	B1
89.2	50.6	B2
113	66.5	B3

target: T2, human VLA-1 α1 subunit (CD49a), full-length, on transfected CHO cells (human, UniProt P56199 29-1179); experiment: cell-based or functional assay

relative inhibition at an optimal concentration, CHO-VLA-1 adhesion to collagen IV [%]	Binder
> 80	B4
> 80	B1
> 80	B2
> 80	B5
> 80	B6
> 80	B7

target: T2, human VLA-1 α1 subunit (CD49a), …; experiment: cell-based or functional assay; remark: another data set of the same source

IC50, adhesion of CHO-VLA-1 cells to collagen IV [nM]	Binder
0.41	B4
0.12	B1
0.19	B2
0.94	B8
0.07	B5
2.37	B9
21.4	B10
0.68	B11
74.9	B12
3.25	B13
4.72	B14
0.59	B3
< 0.01	B6
0.43	B7

target: T1, human VLA-1 (alpha 1/beta 1, …); experiment: cell-based or functional assay; remark: another data set of the same source

% adhesion of IL-2 activated T cells to collagen IV vs no antibody, 10 µg/ml, +PMA [%]	% adhesion of IL-2 activated T cells to collagen IV vs no antibody, 10 µg/ml, -PMA [%]	Binder
17.5	41.3	B1
38.3	41.3	B2
27.4	40.1	B3

target: T3, human CD49a I domain E48K (human, UniProt P56199 151-364, E48K); experiment: ELISA on secreted mutant I domain
T3 construct: domain: I domain; not shown: myc and His tags

binding result	Binder
binds	B1
binds	B5
no binding	B3

target: T4, human CD49a I domain K88N (human, UniProt P56199 151-364, K88N); experiment: ELISA on secreted mutant I domain
T4 construct: domain: I domain; not shown: myc and His tags

binding result	Binder
binds	B1
binds	B5
binds	B3

target: T5, human CD49a I domain K142Q (human, UniProt P56199 151-364, K142Q); experiment: ELISA on secreted mutant I domain
T5 construct: domain: I domain; text prints KI42Q once; not shown: myc and His tags

binding result	Binder
binds	B1
no binding	B5
binds	B3

target: T6, human CD49a I domain with residues 91-96 VQRGGR replaced by mouse GRRGGL (human, UniProt P56199 151-364, V91G; Q92R; R96L); experiment: ELISA on secreted mutant I domain
T6 construct: domain: I domain; also called V91G, Q92R, R96L; not shown: myc and His tags

binding result	Binder
no binding	B1
binds	B5
binds	B3

target: T7, human CD49a I domain E66A (human, UniProt P56199 151-364, E66A); experiment: ELISA on secreted mutant I domain
T7 construct: domain: I domain; not shown: myc and His tags

binding result	Binder
binds	B1
binds	B5
binds	B3

target: T8, human CD49a I domain T204A (human, UniProt P56199 151-364, T204A); experiment: ELISA on secreted mutant I domain
T8 construct: domain: I domain; not shown: myc and His tags

binding result	Binder
binds	B5
binds	B3

target: T9, human CD49a I domain I11F (human, UniProt P56199 151-364, I11F); experiment: ELISA on secreted mutant I domain
T9 construct: domain: I domain; not shown: myc and His tags

binding result	Binder
binds	B1
binds	B5
binds	B3

target: T10, human CD49a I domain S162H (human, UniProt P56199 151-364, S162H); experiment: ELISA on secreted mutant I domain
T10 construct: domain: I domain; not shown: myc and His tags

binding result	Binder
binds	B1
binds	B3

target: T1, human VLA-1 (alpha 1/beta 1, …); experiment: cell-based or functional assay; remark: another data set of the same source

% adhesion of T cells to collagen IV vs no antibody, 0.5 nM mAb, 10 ng/ml PMA [%]	% adhesion of T cells to collagen IV vs no antibody, 5 nM mAb, 10 ng/ml PMA [%]	Binder
94.6	72.5	B1
98.2	89.7	B2
96.6	91.9	B3
